Laboratory results from the DeepSol protein solubility set.

Experiment: soluble on expression in E. coli; label from the status in PepcDB or PDB records
For “MSLSPAQLAAVRRSFRNGRASLTRRSLLRASAGGALAVGGLGALSACGIPAAGRTEGGVSAEDHSAEEKTINFSNWPEYIDVDDSGKRHPTLDAFAKRTGIQVKYTEDINDNDEFFGKIQPQLAAGQSTGRDLIVLTDWLAARMIRLGYVQKLDPSHLPHAFANLSDQFRAPDWDPGRAYSYPWQGISTVIAYNKKALDGVEVKSVSDLLDNPKLKGRVGFLTEMRDSVGMTMLDMGKDPAKFTDDDYDAVIARLQKAVDKGQIRRFTGNDYTSDLSKGDFAACIAWAGDIVQLQADNPDVGYVIPDSGYMTSTDNMLIPNKARHKTNAERLIDYYYELEPAAELAAYINYVSPVAGVQPYLAKIDKSAADNPLIVPDKAMQAKSHAFRSLSSKEETAYQQKFAKLTGAEGHHHHHH”, the “soluble on expression in E. coli” value was “soluble”. With “MSLDRRAQQRLALGEFLRARRRAAVRAELGLPDMPRSRTSGLRREEVAVQAGVSVTWYTWLEQGRDINPSRQVLDAIARALRLSPSEHDYVLALGGYTVDHAVTAGPPPPQIQRFLDALGGHPAFAITSDWGIAAWNTAYAALYPNIERVPPPDRNLLWLVFMDPAIRELLPDWDADSRRFLAEFRADAGPMVGEPSYTALVSRLSSESPHFATAWRAADIERFTSRERLFRHPVVGELRLEHHQVAPVDVPDIQIVAYLPEPGSVAAERLRRLVGQAGDTAREGHHHHHH” the “soluble on expression in E. coli” value was “soluble”. For “MAHHHHHHMKLEEVKDIQKIERIGAHSHIRGLGLNDCLDARYCSEGMIGQMSARKAAGIVLRMIKEGRISGRAILLAGQPGTGKTAIAMGIAKALGEDTPFTHISGSEVYSLEMSKTEALTQAFRRSIGVRVKEESEVIEGEVVEIEIEKFNERDINNKNKKLGKMILKTTEMETLYDLGSKMIEALQKENITAGDVICIDKGTGKITKIGKSFARSKDYDAMDPNTLFVQCPEGELQKRKEVVHTVTLHDIDAINSRTQGFLALFSGDTGEIKNEIREHIDMKINEWQEDEKAEIVPGVLFIDEVHMLDIECFSYLNRALESEQSPIVIMATNRGITHIRGTDYKAPHGIPLDLLDRTLIIPTYPYKHQDILKILEQRAEEEDVDIDEYAKELLCKIASESSLRYALHLITLANLVSKKRKATEVTVQDVRRVYNLFIDVKRSTQYLIEYQNEFMFSELPKEELSVKEEDSSEEKRELHEKNSENSSTSN”, the “soluble on expression in E. coli” value was “soluble”. For “METMKSKANCAQNPNCNIMIFHPTKEEFNDFDKYIAYMESQGAHRAGLAKIIPPKEWKARETYDNISEILIATPLQQVASGRAGVFTQYHKKKKAMTVGEYRHLANSKKYQTPPHQNFEDLERKYWKNRIYNSPIYGADISGSLFDENTKQWNLGHLGTIQDLLEKECGVVIEGVNTPYLYFGMWKTTFAWHTEDMDLYSINYLHLGEPKTWYVVPPEHGQRLERLARELFPGSSRGCGAFLRHKVALISPTVLKENGIPFNRITQEAGEFMVTFPYGYHAGFNHGFNCAEAINFATPRWIDYGKMASQCSCGEARVTFSMDAFVRILQPERYDLWKRGQDRAVVDHMEPRVPA”, the “soluble on expression in E. coli” value was “soluble”. In the case of “METEIKRTSTKDIIAYLTEKFPECFSIKGPVKPLKIGIFQDLAEKLDDDETVSKTRLRQALRHYTSSWRYLKVIKVGNSRVDVDGKDVAEIDEDQAAYASKTLKESQEKFGNKKATDNDAKKPYKGKQGSTEAANNKPADKKRESTKFKTVKSTPKKTVKKEVEPLKSVESTTINVGSKVRVQLGNSPMKATITEISGKDISVQLDSGMVIKTQLQNIYL”, the “soluble on expression in E. coli” value is reported as “not soluble”. For “MAMKIPKSGYNRFMKEGAQHFKGTDEAVQRNIEACTELASQIRSAYGPNGMNKMVINHIEKLFVTNDAATILKELEIQHPAARIIIMATEMQEKQIGDNTNTVVILAAALLEHAANLIHMGMTPQEVAAGYEQAAEKALEILPTLVVKEATDMKNIEEVRQYIRSAITSKQYDNEDIIADLVAKACVTTCPANSFNFNVDNIRICKIIGSGVHTSTVMNGMVFKRGAEGEIREARDARIAVYTCPFDLTQTETKGTVLIENADELRNFSKGEEAEVEEQVKAIADNARSSILAKFWLMNFSKGEEAEVEEQQVKAIADNGVKVVVAAGKFGDMYLHFLNKYKIMAVRLTSKFDLRRLCRTVGAQPQARICAPAVNLLGHCDSVAVQEIGDENVVVFDKKSETGKVATIIIRGSSQSRIDDVERAVDDAVNTYKALTKDGKLLAGAGAVEIELAKEIESFGAKAPGLEQYAIKKFAHALETLPKAIAENAGMPTTETLTKLYAEHVAGKKNAGIDIWKRETMDAVVNNIFDLYAGKRLAIKLATDAASTILKVDQIIMSKQATGGPKPRGPKAQDEDDDGMA”, the “soluble on expression in E. coli” value was “not soluble”. In the case of “MGSDKIHHHHHHMKVLDVIKQIQQAIVYIEDRLLEPFNLQELSDYVGLSPYHLDQSFKMIVGQSPEEYARARKMTIAANDVVNGASRLMDVAKKYRYANSNDFANDFSDFHGISPIQATTKKDELKIQQRLYIKLSTTENAPYTYRLQETDDISLVGYSRFIPTEQLSNPFNIPDFLEDLLVDGYIKELKRYNDTSPYELFVVSCPLEQGLEIFVGVPSERYPSHLESRFLPGRHYALFNLQGEIDYATNEAWYYIESSLQLTLPYERNSLYVEIYPLDISFNDPFTKIQLWLPIKQEIYDLDEGYQN”, the “soluble on expression in E. coli” value is reported as “not soluble”. For “VNIKTNPFKAVSFVESAIKKALDNAGYLIAEIKYDGVRGNICVDNTANSYWLSRVSKTIPALEHLNGFDVRWKRLLNDDRCFYKDGFMLDGELMVKGVDFNTGSGLLRTKWTDTKNQEFHEELFVEPIRKKDKVPFKLHTGHLHIKLYAILPLHIVESGEDCDVMTLLMQEHVKNMLPLLQEYFPEIEWQAAESYEVYDMVELQQLYEQKRAEGHEGLIVKDPMCIYKRGKKSGWWKMKPENEADGIIQGLVWGTKGLANEGKVIGFEVLLESGRLVNATNISRALMDEFTETVKEATLSQWGFFSPYGIGDNDACTINPYDGWACQISYMEETPDGSLRHPSFVMFR”, the “soluble on expression in E. coli” value was “soluble”. With “MDEAYKMRCDWYHHGELVSGGESESKFSQLNDEVVELYQAAEYLDEEFAGMVHLGEIVERDDKKEDEFLAKLADAETPLYPSCFNHSKLSAIMSLFTLKTKNGWSDKSHNDLLETLPEMLLEDNVLHSSLYEVKKFLKSFDMG” the “soluble on expression in E. coli” value was “not soluble”. In the case of “MGSDKIHHHHHHAQTDPSQLKKEGSDAFNAKNYPVAYAKFSEYLKQTNNQDSAIAYYCGMAADEVKKYAEAVTFFDIAIQKKFNIGNAYARKALALDAMKKTDEYVATLEEGLKVDPDNKTMIKNYGLHYLKAGIAAQKAGKVEEAEECFKKVIPLDHKTYKTNALYSLGVLCYNDGANILKKAAPLANSDADKYAAEKEKADGRFKEAIGYLEEATKVSPEDTKSKTMLSQVQAAMK”, the “soluble on expression in E. coli” value is reported as “not soluble”. In the case of “WSKIEKEQFYIAICAMNKTIAQKLFVLMKKAKKWLLQPDVRELKRFSIIDQKQLIYSYLIYHKINVNGEKIDAILDFIQPSQQKQYRLQNDIFLMVKNQCLALLYK”, the “soluble on expression in E. coli” value is reported as “soluble”. In the case of “MVVGGFGVGKTTLVRSVSEIRPLSTEETMTRAGETVDDISEVRGKSATTVAFDFGRISLDTRNILYLFGAPGQERFWFLWDRLFAGTLGAVVLVDTRRIDDSWYAIDRLERHGTPFIVACNDFGGPAHTPEQIREALDLDPHVPLIDCDARSRESSKRVLITLVEHLKSLYVPRAPELALLEHHHHHH”, the “soluble on expression in E. coli” value is reported as “not soluble”. In the case of “TVKSGLILQSISNDVYHNLAVEDWIHDHMNLEGKPVLFLWRNSPTVVIGRHQNPWQECNLNLMREEGVKLARRRSGGGTVYHDMGNINLTFFTTKKKYDRMENLKLVVRALKAVHPHLDVQATKRFDLLLDGQFKISGTASKIGRNAAYHHCTLLCGTDGTFLSSLLKSPYQGIRSNATASTPALVKNLMEKDPTLTCEVVINAVATEYATSHQIDNHIHLINPTDETVFPGINSKAIELQTWEWIYGKTPKFSVDTSFTVLHEQSHVEIKVFIDVKNGRIEVCNIEAPDHWLPLEICDQLNSSLIGSKFSPIETTVLTSILHRTYPGDDELHSKWNILCEKIKGIM”, the “soluble on expression in E. coli” value is reported as “soluble”. With “MENSSDPRTQSAATASLSEMIATITKTFIIAHVDDSDEHLAQALVYNAGRLAWRMREQGVHTDYKTSLSDVVTDADRAAEEFVSGVLTTLRPEDGIVGEEGATRNSTSGRTWVIDPVDGTYNFVNGSDFWCSALALIEGEPEDPTSVIFGAVHRPAMGYTWFGGPEIPTTCDGQPVAKLENKSTELINFATYLNPPCLQQPEIVTRWLTIAQAFLSWRMMGSGSVELANVADGTIGAYVQHSVKDWDWLPGRALVEGAGGKCIKVESGGVTWSIASNPQATDEVAAMLSR” the “soluble on expression in E. coli” value was “not soluble”. For “MNPERSERIEIPVLPLRDVVVYPHMVIPLFVGREKSIRCLEAAMDHDKKIMLVAQKEASTDEPGVNDLFTVGTVASILQMLKLPDGTVKVLVEGLQRARISALSDNGEHFSAKAEYLESPTIDEREQEVLVRTAISQFEGYIKLNKKIPPEVLTSLNSIDDPARLADTIAAHMPLKLADKQSVLEMSDVNERLEYLMAMMESEIDLLQVEKRIRNRVKKQMEKSQREYYLNEQMKAIQKELGEMDDAPDENEALKRKIDAAKMPKEAKEKAEAELQKLKMMSPMSAEATVVRGYIDWMVQVPWNARSKVKKDLRQAQEILDTDHYGLERVKDRILEYLAVQSRVNKIKGPILCLVGPPGVGKTSLGQSIAKATGRKYVRMALGGVRDEAEIRGHRRTYIGSMPGKLIQKMAKVGVKNPLFLLDEIDKMSSDMRGDPASALLEVLDPEQNVAFSDHYLEVDYDLSDVMFVATSNSMNIPAPLLDRMEVIRLSGYTEDEKLNIAKRHLLPKQIERNALKKGELTVDDSAIIGIIRYYTREAGVRGLEREISKLCRKAVKQLLLDKSLKHIEINGDNLHDYLGVQRFDYGRADNENRVGQVTGLAWTEVGGDLLTIETACVPGKGKLTYTGSLGEVMQESIQAALTVVRARAEKLGINPDFYEKRDIHVHVPEGATPKDGPSAGIAMCTALVSCLTGNPVRADVAMTGEITLRGQVLPIGGLKEKLLAAHRGGIKTVLIPFENKRDLEEIPDNVIADLDIHPVKRIEEVLTLALQNEPSGMQVVTAK”, the “soluble on expression in E. coli” value was “not soluble”. In the case of “MGSDKIHHHHHHMAYPPTGGDRKTNLTTILRKSSKNLMSKKSDSQFQNLFTSAKSSNWDERLGQIAYRFNREYQRETFELPTEVQAMPIFREWIGGSFSGRIASPFWEIAQPQKNQHCLDIGCGISFLIYPWRDWQAFFHGQEISNVARDTLNSRGPQLNSKLFKGVELGAAHQLNYSPEQFDLAIATGFSCYFPLEYWNAVLAEVKRVLKPGGHFVFDILNPEQPLAEDWAVLETYLGAEVFLEPVAGWEKAIKAAGAKIVTQKSGELFQMYKVRF”, the “soluble on expression in E. coli” value is reported as “not soluble”. For “ETDKKGENAPDTKRIKETLEKFSLENMRYVGILKSGQKVSGFIEAEGYVYTVGVGNYLGQNYGRIESITDDSIVLNELIEDSTGNWVSRKAELLLNSSDKNTEQAAAPAAEQN”, the “soluble on expression in E. coli” value was “soluble”. In the case of “MGYNETIYHKPFIKINMPDVLGKPDATQIPDDVWLDILINYLQPQDIVNLSEINNRLSRLFKTQHTQSEQLNQKKTLGILKVFAGYSSTFLFARLNGKQRLFKTRNWSAADSDNINPILMPISLPENISVIESIQSTYKHTVVVGRDKHDQIIVATNKINQDYAKQETSHNQLIPLPLRDINISLVSAGNEEDYILNPIFSFPATQQGNCILNCIK”, the “soluble on expression in E. coli” value is reported as “not soluble”.
